The target in one assay is T1, PTPRG expressed on cells (human, UniProt P23470 20-1445).
T1 construct: whole, on cells
The experiment in a line: cell surface interaction assay: query ECD tetramerised with fluorescent streptavidin on transfected cells, immunofluorescence.

Assay [1] deals with T2, PTPRF expressed on cells (human, UniProt P10586 30-1907).
T2 construct: whole, on cells; also called receptor-type tyrosine-protein phosphatase F
The assay is described as above.

The target of assay [2] is T3, PTPRD expressed on cells (human, UniProt P23468 21-1912).
T3 construct: whole, on cells; also called receptor-type tyrosine-protein phosphatase delta
The description is as above.

The target in assay [3] is T4, PTPRS expressed on cells (human, UniProt Q13332 30-1948).
T4 construct: whole, on cells; also called receptor-type tyrosine-protein phosphatase S
The assay is described as above.

Assay [4] deals with T5, PTPRD P249L variant extracellular domain (human, UniProt P23468 21-1265).
T5 construct: extracellular domain; also called IG3 mutant
T5 sequence (looked up): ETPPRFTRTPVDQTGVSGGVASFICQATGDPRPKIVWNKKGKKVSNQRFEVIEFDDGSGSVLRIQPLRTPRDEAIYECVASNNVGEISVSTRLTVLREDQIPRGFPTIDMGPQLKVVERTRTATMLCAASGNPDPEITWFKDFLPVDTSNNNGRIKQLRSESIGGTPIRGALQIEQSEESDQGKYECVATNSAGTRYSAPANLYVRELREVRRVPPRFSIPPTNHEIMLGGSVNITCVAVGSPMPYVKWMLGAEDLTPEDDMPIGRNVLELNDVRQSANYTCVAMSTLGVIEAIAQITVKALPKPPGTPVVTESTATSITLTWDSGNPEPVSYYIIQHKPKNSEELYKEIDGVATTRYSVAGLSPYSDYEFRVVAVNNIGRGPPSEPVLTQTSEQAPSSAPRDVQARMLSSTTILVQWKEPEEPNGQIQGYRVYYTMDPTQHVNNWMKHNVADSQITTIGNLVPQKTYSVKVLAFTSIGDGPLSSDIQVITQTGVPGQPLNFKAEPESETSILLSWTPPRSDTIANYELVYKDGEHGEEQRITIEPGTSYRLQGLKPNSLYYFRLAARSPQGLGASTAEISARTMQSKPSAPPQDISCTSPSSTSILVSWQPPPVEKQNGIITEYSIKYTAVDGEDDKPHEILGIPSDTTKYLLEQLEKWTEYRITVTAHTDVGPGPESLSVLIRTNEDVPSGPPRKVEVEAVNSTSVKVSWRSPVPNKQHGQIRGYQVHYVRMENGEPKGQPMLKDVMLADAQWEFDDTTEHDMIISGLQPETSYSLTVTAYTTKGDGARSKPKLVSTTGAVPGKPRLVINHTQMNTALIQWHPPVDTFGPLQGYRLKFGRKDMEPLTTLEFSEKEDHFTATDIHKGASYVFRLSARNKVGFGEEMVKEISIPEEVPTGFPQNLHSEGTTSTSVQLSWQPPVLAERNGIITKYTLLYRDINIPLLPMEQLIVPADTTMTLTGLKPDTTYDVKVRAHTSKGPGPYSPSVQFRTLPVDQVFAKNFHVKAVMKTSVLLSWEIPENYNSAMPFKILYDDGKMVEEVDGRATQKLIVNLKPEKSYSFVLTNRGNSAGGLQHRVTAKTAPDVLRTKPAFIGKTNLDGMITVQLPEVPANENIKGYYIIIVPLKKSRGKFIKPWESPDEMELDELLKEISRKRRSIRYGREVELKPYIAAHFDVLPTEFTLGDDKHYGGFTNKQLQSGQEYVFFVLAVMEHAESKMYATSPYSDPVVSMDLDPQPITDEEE
The experiment in a line: extracellular interaction screen: pentameric PTPRD variant ECD on ECD-Fc prey (FIG. 5L).

Assay [5] has as its target T2, PTPRF expressed on cells. The experiment in a line: cell surface interaction assay: streptavidin-tetramerized biotinylated ECD on transfected cells, immunofluorescence.
The target of assay [6] is T3, PTPRD expressed on cells. The description is as above.
Assay [7] addresses T4, PTPRS expressed on cells. The assay is described as above.

T2 sequence (P10586 30-1907): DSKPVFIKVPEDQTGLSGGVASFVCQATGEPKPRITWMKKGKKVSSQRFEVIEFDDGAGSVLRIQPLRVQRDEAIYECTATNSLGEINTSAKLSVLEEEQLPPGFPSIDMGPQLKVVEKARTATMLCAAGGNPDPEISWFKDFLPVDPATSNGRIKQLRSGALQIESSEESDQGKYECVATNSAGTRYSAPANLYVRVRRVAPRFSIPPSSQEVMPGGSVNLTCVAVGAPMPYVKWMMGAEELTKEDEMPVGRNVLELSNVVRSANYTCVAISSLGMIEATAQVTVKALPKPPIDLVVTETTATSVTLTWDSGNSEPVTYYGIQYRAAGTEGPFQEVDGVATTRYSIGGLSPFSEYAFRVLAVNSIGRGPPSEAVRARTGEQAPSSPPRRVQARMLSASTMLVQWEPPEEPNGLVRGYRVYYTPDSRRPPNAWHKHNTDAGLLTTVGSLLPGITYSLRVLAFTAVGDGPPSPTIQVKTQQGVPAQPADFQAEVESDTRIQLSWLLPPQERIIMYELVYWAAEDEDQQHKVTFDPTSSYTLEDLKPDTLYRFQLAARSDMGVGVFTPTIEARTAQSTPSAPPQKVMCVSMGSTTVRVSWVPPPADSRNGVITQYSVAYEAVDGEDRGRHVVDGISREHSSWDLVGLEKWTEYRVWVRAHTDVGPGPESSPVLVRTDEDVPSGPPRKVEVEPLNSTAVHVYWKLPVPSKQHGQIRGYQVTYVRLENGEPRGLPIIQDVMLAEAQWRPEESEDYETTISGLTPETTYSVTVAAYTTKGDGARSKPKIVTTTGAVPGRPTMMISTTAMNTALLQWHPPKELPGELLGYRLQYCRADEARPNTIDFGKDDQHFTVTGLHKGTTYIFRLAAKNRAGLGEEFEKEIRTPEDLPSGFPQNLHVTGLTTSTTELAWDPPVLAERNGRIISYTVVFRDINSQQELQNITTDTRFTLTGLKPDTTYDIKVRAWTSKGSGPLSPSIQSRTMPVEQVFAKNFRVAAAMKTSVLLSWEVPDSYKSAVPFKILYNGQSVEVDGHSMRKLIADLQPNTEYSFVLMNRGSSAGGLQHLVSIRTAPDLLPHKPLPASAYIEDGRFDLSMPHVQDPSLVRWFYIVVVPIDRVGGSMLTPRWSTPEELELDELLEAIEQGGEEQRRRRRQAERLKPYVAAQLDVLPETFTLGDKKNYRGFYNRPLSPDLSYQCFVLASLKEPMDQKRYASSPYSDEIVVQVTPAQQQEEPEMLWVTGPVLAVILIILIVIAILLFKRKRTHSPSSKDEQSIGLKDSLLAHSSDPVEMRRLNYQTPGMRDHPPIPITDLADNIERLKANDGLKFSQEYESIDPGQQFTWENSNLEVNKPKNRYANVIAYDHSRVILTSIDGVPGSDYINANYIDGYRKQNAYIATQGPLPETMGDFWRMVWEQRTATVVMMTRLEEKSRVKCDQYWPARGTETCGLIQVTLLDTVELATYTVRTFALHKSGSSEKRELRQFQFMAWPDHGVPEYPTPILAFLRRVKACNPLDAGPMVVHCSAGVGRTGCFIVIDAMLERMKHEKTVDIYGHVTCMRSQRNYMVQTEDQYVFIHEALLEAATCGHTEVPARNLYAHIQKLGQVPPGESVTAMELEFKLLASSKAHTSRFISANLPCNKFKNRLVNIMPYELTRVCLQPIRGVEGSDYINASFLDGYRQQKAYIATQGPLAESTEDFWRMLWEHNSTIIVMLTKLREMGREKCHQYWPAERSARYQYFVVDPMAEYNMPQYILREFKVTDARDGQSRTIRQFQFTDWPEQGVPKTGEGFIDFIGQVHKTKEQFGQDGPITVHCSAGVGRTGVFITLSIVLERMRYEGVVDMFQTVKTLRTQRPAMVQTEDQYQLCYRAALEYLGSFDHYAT
T4 sequence (Q13332 30-1948): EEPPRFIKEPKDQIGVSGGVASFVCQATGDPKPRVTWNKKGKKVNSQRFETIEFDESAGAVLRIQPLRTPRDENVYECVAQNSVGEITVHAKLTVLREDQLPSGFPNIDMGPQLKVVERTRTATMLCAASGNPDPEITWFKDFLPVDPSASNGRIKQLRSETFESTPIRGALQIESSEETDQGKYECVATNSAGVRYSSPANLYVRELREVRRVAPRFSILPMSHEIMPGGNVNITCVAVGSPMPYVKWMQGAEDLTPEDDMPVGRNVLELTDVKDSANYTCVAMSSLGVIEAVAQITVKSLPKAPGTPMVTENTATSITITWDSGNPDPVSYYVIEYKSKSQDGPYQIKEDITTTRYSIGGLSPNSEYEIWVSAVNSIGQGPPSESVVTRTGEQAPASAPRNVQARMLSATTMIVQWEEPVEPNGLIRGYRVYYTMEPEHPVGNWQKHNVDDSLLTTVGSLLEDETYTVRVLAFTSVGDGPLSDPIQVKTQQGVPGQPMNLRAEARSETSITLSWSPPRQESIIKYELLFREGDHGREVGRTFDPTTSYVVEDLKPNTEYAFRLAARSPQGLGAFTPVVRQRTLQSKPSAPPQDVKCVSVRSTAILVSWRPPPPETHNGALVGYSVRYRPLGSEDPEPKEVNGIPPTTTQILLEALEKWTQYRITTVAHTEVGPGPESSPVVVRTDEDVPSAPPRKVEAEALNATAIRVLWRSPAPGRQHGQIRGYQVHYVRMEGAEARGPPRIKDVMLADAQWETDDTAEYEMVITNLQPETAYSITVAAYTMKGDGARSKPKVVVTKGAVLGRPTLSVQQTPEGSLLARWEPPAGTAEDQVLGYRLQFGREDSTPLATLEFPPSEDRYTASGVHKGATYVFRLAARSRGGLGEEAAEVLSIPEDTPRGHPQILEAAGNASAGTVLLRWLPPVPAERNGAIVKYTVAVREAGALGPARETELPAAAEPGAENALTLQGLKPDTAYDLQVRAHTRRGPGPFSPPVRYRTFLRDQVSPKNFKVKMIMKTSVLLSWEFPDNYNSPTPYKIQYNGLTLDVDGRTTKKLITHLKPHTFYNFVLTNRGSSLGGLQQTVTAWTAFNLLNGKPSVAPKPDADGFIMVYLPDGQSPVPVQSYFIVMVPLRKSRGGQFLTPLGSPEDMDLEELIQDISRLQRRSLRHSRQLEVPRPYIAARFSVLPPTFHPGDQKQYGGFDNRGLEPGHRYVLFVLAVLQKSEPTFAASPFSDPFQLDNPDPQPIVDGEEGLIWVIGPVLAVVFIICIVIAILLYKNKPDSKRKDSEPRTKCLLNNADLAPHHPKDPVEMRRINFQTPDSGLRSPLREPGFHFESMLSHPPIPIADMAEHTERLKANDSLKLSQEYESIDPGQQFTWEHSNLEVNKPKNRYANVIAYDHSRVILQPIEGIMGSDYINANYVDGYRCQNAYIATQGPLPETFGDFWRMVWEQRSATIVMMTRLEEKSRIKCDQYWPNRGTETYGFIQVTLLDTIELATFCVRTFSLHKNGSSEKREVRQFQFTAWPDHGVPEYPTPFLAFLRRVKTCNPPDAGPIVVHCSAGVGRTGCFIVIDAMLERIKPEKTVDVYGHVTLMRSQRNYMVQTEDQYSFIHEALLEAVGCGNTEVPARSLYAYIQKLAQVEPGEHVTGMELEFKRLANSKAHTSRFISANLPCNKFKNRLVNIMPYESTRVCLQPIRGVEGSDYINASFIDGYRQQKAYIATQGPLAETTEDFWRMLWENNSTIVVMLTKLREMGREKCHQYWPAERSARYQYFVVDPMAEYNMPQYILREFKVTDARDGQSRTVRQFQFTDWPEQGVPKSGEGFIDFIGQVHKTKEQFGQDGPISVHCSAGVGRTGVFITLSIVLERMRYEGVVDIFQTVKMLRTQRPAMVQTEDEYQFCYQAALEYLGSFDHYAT

B1: CNTN1 extracellular domain (receptor, human, UniProt Q12860 21-993, looked up)
chain: EFTWYRRYGHGVSEEDKGFGPIFEEQPINTIYPEESLEGKVSLNCRARASPFPVYKWRMNNGDVDLTSDRYSMVGGNLVINNPDKQKDAGIYYCLASNNYGMVRSTEATLSFGYLDPFPPEERPEVRVKEGKGMVLLCDPPYHFPDDLSYRWLLNEFPVFITMDKRRFVSQTNGNLYIANVEASDKGNYSCFVSSPSITKSVFSKFIPLIPIPERTTKPYPADIVVQFKDVYALMGQNVTLECFALGNPVPDIRWRKVLEPMPSTAEISTSGAVLKIFNIQLEDEGIYECEAENIRGKDKHQARIYVQAFPEWVEHINDTEVDIGSDLYWPCVATGKPIPTIRWLKNGYAYHKGELRLYDVTFENAGMYQCIAENTYGAIYANAELKILALAPTFEMNPMKKKILAAKGGRVIIECKPKAAPKPKFSWSKGTEWLVNSSRILIWEDGSLEINNITRNDGGIYTCFAENNRGKANSTGTLVITDPTRIILAPINADITVGENATMQCAASFDPALDLTFVWSFNGYVIDFNKENIHYQRNFMLDSNGELLIRNAQLKHAGRYTCTAQTIVDNSSASADLVVRGPPGPPGGLRIEDIRATSVALTWSRGSDNHSPISKYTIQTKTILSDDWKDAKTDPPIIEGNMEAARAVDLIPWMEYEFRVVATNTLGRGEPSIPSNRIKTDGAAPNVAPSDVGGGGGRNRELTITWAPLSREYHYGNNFGYIVAFKPFDGEEWKKVTVTNPDTGRYVHKDETMSPSTAFQVKVKAFNNKGDGPYSLVAVINSAQDAPSEAPTEVGVKVLSSSEISVHWEHVLEKIVESYQIRYWAAHDKEEAANRVQVTSQEYSARLENLLPDTQYFIEVGACNSAGCGPPSDMIEAFTKKAPPSQPPRIISSVRSGSRYIITWDHVVALSNESTVTGYKVLYRPDGQHDGKLYSTHKHSIEVPIPRDGEYVVEVRAHSDGGDGVVSQVKIS
notes: extracellular domain; Streptavidin tetramer in cell assays; ECD-Fc in SPR; also called contactin 1
With B1, the binding result with PTPRG expressed on cells, in the assay with PTPRF expressed on cells [1], in the assay with PTPRD expressed on cells [2] and with PTPRS expressed on cells [3] was “no binding” each time.

B2: LRRC4B extracellular domain (receptor, human, UniProt Q9NT99 36-576, looked up)
chain: AGGGGVAVTSAAGGGSPPATSCPVACSCSNQASRVICTRRDLAEVPASIPVNTRYLNLQENGIQVIRTDTFKHLRHLEILQLSKNLVRKIEVGAFNGLPSLNTLELFDNRLTTVPTQAFEYLSKLRELWLRNNPIESIPSYAFNRVPSLRRLDLGELKRLEYISEAAFEGLVNLRYLNLGMCNLKDIPNLTALVRLEELELSGNRLDLIRPGSFQGLTSLRKLWLMHAQVATIERNAFDDLKSLEELNLSHNNLMSLPHDLFTPLHRLERVHLNHNPWHCNCDVLWLSWWLKETVPSNTTCCARCHAPAGLKGRYIGELDQSHFTCYAPVIVEPPTDLNVTEGMAAELKCRTGTSMTSVNWLTPNGTLMTHGSYRVRISVLHDGTLNFTNVTVQDTGQYTCMVTNSAGNTTASATLNVSAVDPVAAGGTGSGGGGPGGSGGVGGGSGGYTYFTTVTVETLETQPGEEALQPRGTEKEPPGPTTDGVWGGGRPGDAAGPASSSTTAPAPRSSRPTEKAFTVPITDVTENALKDLDDVMKTTK
notes: extracellular domain; ECD-Fc prey; also called NGL-3; netrin-G ligand-3
On to B2, for which the binding result in assay [4] is reported as “no binding”.

B3: LRFN5 extracellular domain (receptor, human, UniProt Q96NI6 18-529, looked up)
chain: QICPKRCVCQILSPNLATLCAKKGLLFVPPNIDRRTVELRLADNFVTNIKRKDFANMTSLVDLTLSRNTISFITPHAFADLRNLRALHLNSNRLTKITNDMFSGLSNLHHLILNNNQLTLISSTAFDDVFALEELDLSYNNLETIPWDAVEKMVSLHTLSLDHNMIDNIPKGTFSHLHKMTRLDVTSNKLQKLPPDPLFQRAQVLATSGIISPSTFALSFGGNPLHCNCELLWLRRLSREDDLETCASPPLLTGRYFWSIPEEEFLCEPPLITRHTHEMRVLEGQRATLRCKARGDPEPAIHWISPEGKLISNATRSLVYDNGTLDILITTVKDTGAFTCIASNPAGEATQIVDLHIIKLPHLLNSTNHIHEPDPGSSDISTSTKSGSNTSSSNGDTKLSQDKIVVAEATSSTALLKFNFQRNIPGIRMFQIQYNGTYDDTLVYRMIPPTSKTFLVNNLAAGTMYDLCVLAIYDDGITSLTATRVVGCIQFTTEQDYVRCHFMQSQFLGGTM
notes: extracellular domain; Streptavidin tetramer in cell assay; ECD-Fc prey in the variant screen; also called LFRN5
For the molecule B3, the binding result with PTPRF expressed on cells [5], with PTPRD expressed on cells [6] and with PTPRS expressed on cells [7] was “binds” throughout.

The record behind these values is US20220119490A1 (Genentech, published 2022).
